Molecular target: cyno IgE c(epsilon)2-c(epsilon)3-c(epsilon)4 Fc fragment with C-terminal (His)10 tag (cynomolgus monkey)
Test: Alphascreen, competition with HuFc(epsilon)RI(alpha)Fc for cyno IgE Fc

cyno IgE c(epsilon)2-c(epsilon)3-c(epsilon)4 Fc fragment with C-terminal (His)10 tag (cynomolgus monkey), sequence (chain, as listed by the source): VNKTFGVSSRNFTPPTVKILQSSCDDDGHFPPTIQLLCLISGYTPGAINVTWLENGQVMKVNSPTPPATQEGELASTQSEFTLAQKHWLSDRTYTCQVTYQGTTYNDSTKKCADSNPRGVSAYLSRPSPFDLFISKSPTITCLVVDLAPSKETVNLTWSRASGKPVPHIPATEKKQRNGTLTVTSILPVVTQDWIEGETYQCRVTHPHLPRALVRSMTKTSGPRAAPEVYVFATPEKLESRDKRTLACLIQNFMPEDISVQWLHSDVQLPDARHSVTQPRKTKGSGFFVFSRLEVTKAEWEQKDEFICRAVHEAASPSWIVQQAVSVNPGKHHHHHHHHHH

B1: Nanobody 39B2 (VHH, not shown: small tags and cut ends)
VHH: EVQLVESGGGLVQPGGSLRLSCAASGFTFGSYDMSWVRQAPGKGPEWVSAINSGGGSTYYADSVKGRFTISRDNAKNTLYLQMNSLKPEDTAVYYCSTDLGPWIEGTMEEYEYEYWGQGTQVTVSS
**Q.** How did the % inhibition at 250 nM Nanobody turn out when B1 was run?
**A.** 38%
